From the nanobody polyreactivity screen of Harvey et al. (2022) come the findings set out here.

This data set can be described thus: yeast display, Sf9 membrane polyspecificity reagent, FACS + sequencing; frameworks hold sequencing errors. A digest of the protocol: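 Sorting gates, low and high (top ~1%), were placed on anti-HA fluorescence to track expression and on streptavidin fluorescence to track reagent binding. A clone's polyreactivity label is taken from the gate it came out of. The reagent was 10% biotinylated, detergent-solubilized Sf9 membrane, applied for 1 hour at 4 °C to galactose-induced yeast display cells.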
For “QVQLVESGGGLVQAGGSLRLSCAASGSTFINYAMGWYRQAPGKERELVAAYADSVKGRFTISRDNAKNTVYLQMNRLKPEDTAVYDCNAVTGECGQGTQVTVSS”, the “polyreactivity (PSR sort gate)” value is “low polyreactivity”. The same measure for “QVQLVESGGGLVQAGGSLRLSCAASGLTFLGNAMGWYRQAPGKERELVASITFSGDSTYYADSVKGRFTISRDNAKNSVYLQMNSVKPEDTAVYYCAADGSRLYYWPFEYDYWGQGTQVTVSS”: “low polyreactivity”. The same measure for “QVQLVESGGGLVQAGGSLRLSCAGSGNIFSTYAMGWYRPAPGKVRELVASISENGGSTYYADSVKGRFTISRDNAKNTVYLQMNSLKPEDTAVYYCNADAYVYFDDGDYWGQGTQVTVSS”: “low polyreactivity”. The same measure for “QVQLVESGGGLVQAGGSLRLSCAASGRIFERYAMGAYRQAPGKERELVAAISVSGSGTFYADSVKGLFTISRDNAKNTVYLQMNSLKTEDTAVYYCAADASLLGLFQGYDYWGQGTQVSVSS”: “low polyreactivity”; for “QVQLVESGGGLVQAGGSLRLSCAASGFTFQTYAMGWYRQEPGKERELVATIRTRGGSTSYADSVKGRFTISRDNAKNTVYLQMNSLKPEDTAVYYCNGRLSYRSAWYYGGDRYDYWGQGTQVTVSS”: “high polyreactivity”.

With “QVQLVESGGGLVQAGGSLRLSCAASGRTLYLNAMGWYRQAPGKERELVASISRGGGSTYYADSVKGRFTISRDNAKYTVYLQMNSLKPEDTAVYYCAATGAGDYDYWGQGTQVTVSS”, the “polyreactivity (PSR sort gate)” value is on record as “low polyreactivity”. Then “QVQLVESGGGLVQAGGSLRLSCAASGITFGRNTMGWYRPAPGKERELVAAIDSGGNTYADSVKGRFTISRDNAKNTVYLQMNSLKPEDTAVYYCAVDGGEFSSYGYWGQGTQVTVSS”, with “low polyreactivity”; and “QVQLVESGGGLVQAGGSLRLSCAASGIIFSVYAMGWYRQAPGKERELVAAITWSGSRTYYADSVKGRFTISRDNAKNTVYLQMNSLKPEDTAVYYCATVFRGFVEYEYWGQGTQVTVSS”, with “low polyreactivity”.

As to “QVQLVESGGGLVQAGGSLRLSCAASGITFHRNAMGWYRQAPGKERELVAAITRGGSTYYADSVKGRFTISRDNAKNTVYLQMNSLKPEDTAVYYCNAYYWFGPGRDYWGQGTQVTVSS”, the “polyreactivity (PSR sort gate)” value is “high polyreactivity”.

As for “QVQLVESGGGLVQAGGSLRLSCAASGLIFYTYAMGWYRQAPGKERELVAAISYDGTRTYYADSVKGRFTISRDNAKNTVYLQMNSLKPEDTAVYYCTAAYRRGDDYWGQGTQVTVSS”, the “polyreactivity (PSR sort gate)” value is recorded as “high polyreactivity”. Then “QVQLVESGGGLVQAGGSLRLSGAASGSILWSYALGCYIQAPGKERELVAAIRSGGSTYYADSVKGRFTISRDNAKNTVYFQMNSLKPEDTAVLYCNATYAPLFEYDYWGQGTQVTVSS”, with “low polyreactivity”; and “QVQLVESGGGLVQAGGSLRLSSAASGSNFGYKAMGWYRQEPGKEREMVAAISYSGASTYYADSVKGRFTISRDNAKNTVYLQKHSLKPEDTAVYYCAAGWKRFSGRKHYYWGQGTQVTVSS”, with “high polyreactivity”. The same measure for “QVQLVESGGGLVQAGGSLRLSCAASGRTFWIYAMGWYRQAPGKERELVAGISRSGGSTNYADSVKGRFTISRDNAKNTVYLQMNSLKPEDTAVYYCNTDPYSSAWYNYDYWGQGTQVTVSS”: “low polyreactivity”; for “QVQLVESGGCLVQAGGSLRLSCAASGLTFRYYAMGWYRQAPGKERELVAAITASVGSTYYADSVKGRFTISRDNAKNTVYLQMNSLKPEDTAVYYCAADSEQDNLRYYRWVWYDYWGQGTQVTVSS”: “low polyreactivity”. The same measure for “QVQLVESGGGLVQAGGSLRLSCAASGSIFRGYAMGWYRQAPGRERELVAAISRSGGSTYYADSVKGRFTISRDNAKNTVYLQMNSLKPEDTAVYYCAALLRGRYRMYYWGQGTQVTVSS”: “high polyreactivity”; for “QVQLVESGGGLVQAGGSLRLSCAPSGATFRRNAMGWYRQAPGKERELVAAITWRGGSTSYADSVKGRFTISRDNAKNTVYLQMNSLKREDTAVYYCAAVKGHSQVLSYGYWGQGTQVTVSS”: “low polyreactivity”.
